Test results: patent US20220040297A1 (Chugai, published 2022)

B1: NNS6f50 (antibody)
heavy: QVQLVESGGGLVQPGRSLRLSCAASGFTFSNAWMHWVRQAPGKGLEWVAQIKDKSNNYATYYAESVKGRFTISRDDSKNSIYLQMNSLKTEDTAVYYCRYVHYAALTGGLGYYGVDAWGQGTTVTVSSASTKGPSVFPLAPSSKSTSGGTAALGCLVKDYFPEPVTVSWNSGALTSGVHTFPAVLQSSGLYSLSSVVTVPSSSLGTQTYICNVNHKPSNTKVDKKVEPKSCDKTHTCPPCPAPEAAGGPSVFLFPPKPKDTLMISRTPEVTCVVVDVSHEDPEVKFNWYVDGVEVHNAKTKPREEQYASTYRVVSVLTVLHQDWLNGKEYKCKVSNKALPAPIEKTISKAKGQPREPQVYTLPPSRCELTKNQVSLSCAVKGFYPSDIAVEWESNGQPENNYKTTPPVLDSDGSFFLVSKLTVDKSRWQQGNVFSCSVMHEALHNHYTQKSLSLSPDYKDDDDK
chain: EPKSSDKTHTCPPCPAPELLGGPSVFLFPPKPKDTLMISRTPEVTCVVVDVSHEDPEVKFNWYVDGVEVHNAKTKPREEQYNSTYRVVSVLTVLHQDWLNGKEYKCKVSNKALPAPIEKTISKAKGQPREPQVCTLPPSRDELTKNQVSLWCLVKGFYPSDIAVEWESNGQPENNYKTTPPVLDSDGSFFLYSKLTVDKSRWQQGNVFSCSVMHEALHNRYTQKSLSLSP
light: DIVMTQSPLSLPVTPGEPASISCRSSQSLVHSNRNTYLHWYQQKPGQAPRLLIYKVSNRFSGVPDRFSGSGSGTDFTLKISRVEAEDVGVYYCGQGTQVPYTFGQGTKLEIKRTVAAPSVFIFPPSDEQLKSGTASVVCLLNNFYPREAKVQWKVDNALQSGNSQESVTEQDSKDSTYSLSSTLTLSKADYEKHKVYACEVTHQGLSSPVTKSFNRGEC
notes: one-arm antibody
B2: NNS6f52 (antibody)
heavy: QVQLVESGGGLVQPGRSLRLSCAASGFTFSNAWMHWVRQAPGKGLEWVAQIKDKSNNYATYYAESVKGRFTISRDDSKNSIYLQMNSLKTEDTAVYYCRYVHYAAYMLGLGYYGVDAWGQGTTVTVSSASTKGPSVFPLAPSSKSTSGGTAALGCLVKDYFPEPVTVSWNSGALTSGVHTFPAVLQSSGLYSLSSVVTVPSSSLGTQTYICNVNHKPSNTKVDKKVEPKSCDKTHTCPPCPAPEAAGGPSVFLFPPKPKDTLMISRTPEVTCVVVDVSHEDPEVKFNWYVDGVEVHNAKTKPREEQYASTYRVVSVLTVLHQDWLNGKEYKCKVSNKALPAPIEKTISKAKGQPREPQVYTLPPSRCELTKNQVSLSCAVKGFYPSDIAVEWESNGQPENNYKTTPPVLDSDGSFFLVSKLTVDKSRWQQGNVFSCSVMHEALHNHYTQKSLSLSPDYKDDDDK
chain: EPKSSDKTHTCPPCPAPELLGGPSVFLFPPKPKDTLMISRTPEVTCVVVDVSHEDPEVKFNWYVDGVEVHNAKTKPREEQYNSTYRVVSVLTVLHQDWLNGKEYKCKVSNKALPAPIEKTISKAKGQPREPQVCTLPPSRDELTKNQVSLWCLVKGFYPSDIAVEWESNGQPENNYKTTPPVLDSDGSFFLYSKLTVDKSRWQQGNVFSCSVMHEALHNRYTQKSLSLSP
light: DIVMTQSPLSLPVTPGEPASISCRSSQSLVHSNRNTYLHWYQQKPGQAPRLLIYKVSNRFSGVPDRFSGSGSGTDFTLKISRVEAEDVGVYYCGQGTQVPYTFGQGTKLEIKRTVAAPSVFIFPPSDEQLKSGTASVVCLLNNFYPREAKVQWKVDNALQSGNSQESVTEQDSKDSTYSLSSTLTLSKADYEKHKVYACEVTHQGLSSPVTKSFNRGEC
notes: one-arm antibody
B3: NNS6f58 (antibody)
heavy: QVQLVESGGGLVQPGRSLRLSCAASGFTFSNAWMHWVRQAPGKGLEWVAQIKDKSNNYATYYAESVKGRFTISRDDSKNSIYLQMNSLKTEDTAVYYCRYVHYAASWQVSRYYGVDAWGQGTTVTVSSASTKGPSVFPLAPSSKSTSGGTAALGCLVKDYFPEPVTVSWNSGALTSGVHTFPAVLQSSGLYSLSSVVTVPSSSLGTQTYICNVNHKPSNTKVDKKVEPKSCDKTHTCPPCPAPEAAGGPSVFLFPPKPKDTLMISRTPEVTCVVVDVSHEDPEVKFNWYVDGVEVHNAKTKPREEQYASTYRVVSVLTVLHQDWLNGKEYKCKVSNKALPAPIEKTISKAKGQPREPQVYTLPPSRCELTKNQVSLSCAVKGFYPSDIAVEWESNGQPENNYKTTPPVLDSDGSFFLVSKLTVDKSRWQQGNVFSCSVMHEALHNHYTQKSLSLSPDYKDDDDK
chain: EPKSSDKTHTCPPCPAPELLGGPSVFLFPPKPKDTLMISRTPEVTCVVVDVSHEDPEVKFNWYVDGVEVHNAKTKPREEQYNSTYRVVSVLTVLHQDWLNGKEYKCKVSNKALPAPIEKTISKAKGQPREPQVCTLPPSRDELTKNQVSLWCLVKGFYPSDIAVEWESNGQPENNYKTTPPVLDSDGSFFLYSKLTVDKSRWQQGNVFSCSVMHEALHNRYTQKSLSLSP
light: DIVMTQSPLSLPVTPGEPASISCRSSQSLVHSNRNTYLHWYQQKPGQAPRLLIYKVSNRFSGVPDRFSGSGSGTDFTLKISRVEAEDVGVYYCGQGTQVPYTFGQGTKLEIKRTVAAPSVFIFPPSDEQLKSGTASVVCLLNNFYPREAKVQWKVDNALQSGNSQESVTEQDSKDSTYSLSSTLTLSKADYEKHKVYACEVTHQGLSSPVTKSFNRGEC
notes: one-arm antibody
B4: NNS6f55 (antibody)
heavy: QVQLVESGGGLVQPGRSLRLSCAASGFTFSNAWMHWVRQAPGKGLEWVAQIKDKSNNYATYYAESVKGRFTISRDDSKNSIYLQMNSLKTEDTAVYYCRYVHYAAAGRWLAYYGVDAWGQGTTVTVSSASTKGPSVFPLAPSSKSTSGGTAALGCLVKDYFPEPVTVSWNSGALTSGVHTFPAVLQSSGLYSLSSVVTVPSSSLGTQTYICNVNHKPSNTKVDKKVEPKSCDKTHTCPPCPAPEAAGGPSVFLFPPKPKDTLMISRTPEVTCVVVDVSHEDPEVKFNWYVDGVEVHNAKTKPREEQYASTYRVVSVLTVLHQDWLNGKEYKCKVSNKALPAPIEKTISKAKGQPREPQVYTLPPSRCELTKNQVSLSCAVKGFYPSDIAVEWESNGQPENNYKTTPPVLDSDGSFFLVSKLTVDKSRWQQGNVFSCSVMHEALHNHYTQKSLSLSPDYKDDDDK
chain: EPKSSDKTHTCPPCPAPELLGGPSVFLFPPKPKDTLMISRTPEVTCVVVDVSHEDPEVKFNWYVDGVEVHNAKTKPREEQYNSTYRVVSVLTVLHQDWLNGKEYKCKVSNKALPAPIEKTISKAKGQPREPQVCTLPPSRDELTKNQVSLWCLVKGFYPSDIAVEWESNGQPENNYKTTPPVLDSDGSFFLYSKLTVDKSRWQQGNVFSCSVMHEALHNRYTQKSLSLSP
light: DIVMTQSPLSLPVTPGEPASISCRSSQSLVHSNRNTYLHWYQQKPGQAPRLLIYKVSNRFSGVPDRFSGSGSGTDFTLKISRVEAEDVGVYYCGQGTQVPYTFGQGTKLEIKRTVAAPSVFIFPPSDEQLKSGTASVVCLLNNFYPREAKVQWKVDNALQSGNSQESVTEQDSKDSTYSLSSTLTLSKADYEKHKVYACEVTHQGLSSPVTKSFNRGEC
notes: one-arm antibody
B5: NNS6f56 (antibody)
heavy: QVQLVESGGGLVQPGRSLRLSCAASGFTFSNAWMHWVRQAPGKGLEWVAQIKDKSNNYATYYAESVKGRFTISRDDSKNSIYLQMNSLKTEDTAVYYCRYVHYAAREATRWYYGVDAWGQGTTVTVSSASTKGPSVFPLAPSSKSTSGGTAALGCLVKDYFPEPVTVSWNSGALTSGVHTFPAVLQSSGLYSLSSVVTVPSSSLGTQTYICNVNHKPSNTKVDKKVEPKSCDKTHTCPPCPAPEAAGGPSVFLFPPKPKDTLMISRTPEVTCVVVDVSHEDPEVKFNWYVDGVEVHNAKTKPREEQYASTYRVVSVLTVLHQDWLNGKEYKCKVSNKALPAPIEKTISKAKGQPREPQVYTLPPSRCELTKNQVSLSCAVKGFYPSDIAVEWESNGQPENNYKTTPPVLDSDGSFFLVSKLTVDKSRWQQGNVFSCSVMHEALHNHYTQKSLSLSPDYKDDDDK
chain: EPKSSDKTHTCPPCPAPELLGGPSVFLFPPKPKDTLMISRTPEVTCVVVDVSHEDPEVKFNWYVDGVEVHNAKTKPREEQYNSTYRVVSVLTVLHQDWLNGKEYKCKVSNKALPAPIEKTISKAKGQPREPQVCTLPPSRDELTKNQVSLWCLVKGFYPSDIAVEWESNGQPENNYKTTPPVLDSDGSFFLYSKLTVDKSRWQQGNVFSCSVMHEALHNRYTQKSLSLSP
light: DIVMTQSPLSLPVTPGEPASISCRSSQSLVHSNRNTYLHWYQQKPGQAPRLLIYKVSNRFSGVPDRFSGSGSGTDFTLKISRVEAEDVGVYYCGQGTQVPYTFGQGTKLEIKRTVAAPSVFIFPPSDEQLKSGTASVVCLLNNFYPREAKVQWKVDNALQSGNSQESVTEQDSKDSTYSLSSTLTLSKADYEKHKVYACEVTHQGLSSPVTKSFNRGEC
notes: one-arm antibody
B6: NNS6f59 (antibody)
heavy: QVQLVESGGGLVQPGRSLRLSCAASGFTFSNAWMHWVRQAPGKGLEWVAQIKDKSNNYATYYAESVKGRFTISRDDSKNSIYLQMNSLKTEDTAVYYCRYVHYAALLVQEGYYGVDAWGQGTTVTVSSASTKGPSVFPLAPSSKSTSGGTAALGCLVKDYFPEPVTVSWNSGALTSGVHTFPAVLQSSGLYSLSSVVTVPSSSLGTQTYICNVNHKPSNTKVDKKVEPKSCDKTHTCPPCPAPEAAGGPSVFLFPPKPKDTLMISRTPEVTCVVVDVSHEDPEVKFNWYVDGVEVHNAKTKPREEQYASTYRVVSVLTVLHQDWLNGKEYKCKVSNKALPAPIEKTISKAKGQPREPQVYTLPPSRCELTKNQVSLSCAVKGFYPSDIAVEWESNGQPENNYKTTPPVLDSDGSFFLVSKLTVDKSRWQQGNVFSCSVMHEALHNHYTQKSLSLSPDYKDDDDK
chain: EPKSSDKTHTCPPCPAPELLGGPSVFLFPPKPKDTLMISRTPEVTCVVVDVSHEDPEVKFNWYVDGVEVHNAKTKPREEQYNSTYRVVSVLTVLHQDWLNGKEYKCKVSNKALPAPIEKTISKAKGQPREPQVCTLPPSRDELTKNQVSLWCLVKGFYPSDIAVEWESNGQPENNYKTTPPVLDSDGSFFLYSKLTVDKSRWQQGNVFSCSVMHEALHNRYTQKSLSLSP
light: DIVMTQSPLSLPVTPGEPASISCRSSQSLVHSNRNTYLHWYQQKPGQAPRLLIYKVSNRFSGVPDRFSGSGSGTDFTLKISRVEAEDVGVYYCGQGTQVPYTFGQGTKLEIKRTVAAPSVFIFPPSDEQLKSGTASVVCLLNNFYPREAKVQWKVDNALQSGNSQESVTEQDSKDSTYSLSSTLTLSKADYEKHKVYACEVTHQGLSSPVTKSFNRGEC
notes: one-arm antibody

Each binder was assayed against T1, CD3ε homodimer protein (human, UniProt P07766 23-126, limits assumed) (assay: SPR (Biacore T200, 25°C); CD3ε homodimer immobilized on CM4, one-arm antibody as analyte).
T1 construct: also called human CD3ε homodimer protein; CD3e homodimer
T1 sequence (P07766 23-126 limits assumed): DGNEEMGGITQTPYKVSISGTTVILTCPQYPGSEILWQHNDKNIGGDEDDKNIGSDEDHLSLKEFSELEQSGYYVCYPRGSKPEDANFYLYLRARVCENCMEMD
For B1, the Kd was 71 nM.
With B2 the Kd was 52 nM.
B3 was tested, and the Kd was 44 nM.
B4 showed a Kd of 31 nM.
B5 showed a Kd of 21 nM.
In the case of B6, the Kd is reported as 200 nM.
